These results are taken from article PMC12658125, “Oligomerisation of Ku from Mycobacterium tuberculosis promotes DNA synapsis” (Nature Communications, 2025).

Data set [1] has as its target T1, Ku-Mtb (Mycobacterium tuberculosis, UniProt P9WKD9 1-273).
T1 sequence: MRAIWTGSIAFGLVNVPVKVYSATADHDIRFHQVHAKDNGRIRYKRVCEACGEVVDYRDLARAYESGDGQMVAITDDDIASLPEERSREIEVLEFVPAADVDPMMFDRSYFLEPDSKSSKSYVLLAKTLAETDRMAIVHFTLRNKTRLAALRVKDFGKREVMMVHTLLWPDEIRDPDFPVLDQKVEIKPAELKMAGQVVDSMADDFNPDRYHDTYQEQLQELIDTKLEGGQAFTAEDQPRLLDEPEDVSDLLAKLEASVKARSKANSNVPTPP
In words: EMSA. The following applies: protein: recombinant; tags: His (Ni-NTA purified, pET45b); chain copies: 2; label: 5' FAM on strand 1; 3' overhang 20 nt on strand 1. (In EMSA bound probe runs differently from free probe, usually more slowly.)

Data set [2] concerns the target T1, Ku-Mtb. In words: FIDA (hydrodynamic radius). To be noted: protein: recombinant; tags: His (Ni-NTA purified, pET45b); chain copies: 2; label: 5' FAM on strand 1; 3' overhang 20 nt on strand 1.
The target of data set [3] is T1, Ku-Mtb. In words: EMSA; 5 mM MgCl2. The following applies: protein: recombinant; tags: His (Ni-NTA purified, pET45b); chain copies: 2; blunt.

B1: FAM-DNA, 32 bp with 3' 20dT overhang (mixed)
DNA 1: GGAATGTAACCATCGTTGGTCGGCAGCAGGGCTTTTTTTTTTTTTTTTTTTT
DNA 2: GCCCTGCTGCCGACCAACGATGGTTACATTCC
Turning to B1, the binding result in data set [1] and in data set [2] was “binds” each time.

B2: Blunt-DNA 50 bp (dsDNA)
DNA 1: CCTCTAGACCTGTACTACTCGAGAGATCGATCGACAGACGATGACTTAGC
DNA 2: GCTAAGTCATCGTCTGTCGATCGATCTCTCGAGTAGTACAGGTCTAGAGG
As to B2, in data set [3], the binding result was “binds”.
